{"source": "patent US20240066131A1", "about": "(Protagonist Therapeutics, Inc., priority 2020, published 2024)", "binders": {"B1": {"name": "Isovaleric Acid-E-A-H-[Dpa]-P-A-I-[(D)Lys]-[bhPhe]-[Lys(Ahx_Palm)]-[(D)Lys]-A-NH2 (peptide)", "peptide": "Isovaleryl-EAH[Dip]PAI[dK][β3hF]K([Ahx-Palmitoyl])[dK]A-NH2", "SMILES": "CCCCCCCCCCCCCCCC(=O)NCCCCCC(=O)NCCCC[C@H](NC(=O)C[C@H](Cc1ccccc1)NC(=O)[C@@H](CCCCN)NC(=O)[C@@H](NC(=O)[C@H](C)NC(=O)[C@@H]1CCCN1C(=O)[C@@H](NC(=O)[C@H](Cc1c[nH]cn1)NC(=O)[C@H](C)NC(=O)[C@H](CCC(=O)O)NC(=O)CC(C)C)C(c1ccccc1)c1ccccc1)[C@@H](C)CC)C(=O)N[C@H](CCCCN)C(=O)N[C@@H](C)C(N)=O"}, "B2": {"name": "Isovaleric Acid-[Tet1]-T-[(1Me)His]-[Dpa]-P-A-I-[Lys(Ahx_Palm)]-[bhPhe]-NH2 (peptide)", "peptide": "Isovaleryl-[Ala(1H-tetrazol-5-yl)]T[His(τ-Me)][Dip]PAIK([Ahx-Palmitoyl])[β3hF]-NH2", "SMILES": "CCCCCCCCCCCCCCCC(=O)NCCCCCC(=O)NCCCC[C@H](NC(=O)[C@@H](NC(=O)[C@H](C)NC(=O)[C@@H]1CCCN1C(=O)[C@@H](NC(=O)[C@H](Cc1cn(C)cn1)NC(=O)[C@@H](NC(=O)[C@H](Cc1nnn[nH]1)NC(=O)CC(C)C)[C@@H](C)O)C(c1ccccc1)c1ccccc1)[C@@H](C)CC)C(=O)N[C@H](CC(N)=O)Cc1ccccc1"}, "B3": {"name": "Isovaleric Acid-K-T-H-[Dpa]-P-A-I-[Lys(Ahx_Palm)]-[bhPhe]-E-NH2; (K and E cyclized) (peptide)", "peptide": "Isovaleryl-KTH[Dip]PAIK([Ahx-Palmitoyl])[β3hF]E-NH2", "modifications": "lactam 1-10", "SMILES": "CCCCCCCCCCCCCCCC(=O)NCCCCCC(=O)NCCCC[C@@H]1NC(=O)[C@H]([C@@H](C)CC)NC(=O)[C@H](C)NC(=O)[C@@H]2CCCN2C(=O)[C@H](C(c2ccccc2)c2ccccc2)NC(=O)[C@H](Cc2c[nH]cn2)NC(=O)[C@H]([C@@H](C)O)NC(=O)[C@@H](NC(=O)CC(C)C)CCCCNC(=O)CC[C@@H](C(N)=O)NC(=O)C[C@H](Cc2ccccc2)NC1=O"}, "B4": {"name": "Isovaleric Acid-E-T-H-[Dpa]-P-A-I-[bhPhe]-[(D)Lys]-A-NH2 (peptide)", "peptide": "Isovaleryl-ETH[Dip]PAI[β3hF][dK]A-NH2", "SMILES": "CC[C@H](C)[C@H](NC(=O)[C@H](C)NC(=O)[C@@H]1CCCN1C(=O)[C@@H](NC(=O)[C@H](Cc1c[nH]cn1)NC(=O)[C@@H](NC(=O)[C@H](CCC(=O)O)NC(=O)CC(C)C)[C@@H](C)O)C(c1ccccc1)c1ccccc1)C(=O)N[C@H](CC(=O)N[C@H](CCCCN)C(=O)N[C@@H](C)C(N)=O)Cc1ccccc1"}, "B5": {"name": "Isovaleric Acid-L-T-H-[Dpa]-P-A-I-[(N-Me)Lys]-[bhPhe]-[Lys(Ahx_Palm)]-NH2 (peptide)", "peptide": "Isovaleryl-LTH[Dip]PAI[NMeK][β3hF]K([Ahx-Palmitoyl])-NH2", "SMILES": "CCCCCCCCCCCCCCCC(=O)NCCCCCC(=O)NCCCC[C@H](NC(=O)C[C@H](Cc1ccccc1)NC(=O)[C@H](CCCCN)N(C)C(=O)[C@@H](NC(=O)[C@H](C)NC(=O)[C@@H]1CCCN1C(=O)[C@@H](NC(=O)[C@H](Cc1c[nH]cn1)NC(=O)[C@@H](NC(=O)[C@H](CC(C)C)NC(=O)CC(C)C)[C@@H](C)O)C(c1ccccc1)c1ccccc1)[C@@H](C)CC)C(N)=O"}, "B6": {"name": "Isovaleric Acid-E-T-A-[Dpa]-P-A-I-[(D)Lys]-[bhPhe]-[Lys(Ahx_Palm)]-[(D)Lys]-A-NH2 (peptide)", "peptide": "Isovaleryl-ETA[Dip]PAI[dK][β3hF]K([Ahx-Palmitoyl])[dK]A-NH2", "SMILES": "CCCCCCCCCCCCCCCC(=O)NCCCCCC(=O)NCCCC[C@H](NC(=O)C[C@H](Cc1ccccc1)NC(=O)[C@@H](CCCCN)NC(=O)[C@@H](NC(=O)[C@H](C)NC(=O)[C@@H]1CCCN1C(=O)[C@@H](NC(=O)[C@H](C)NC(=O)[C@@H](NC(=O)[C@H](CCC(=O)O)NC(=O)CC(C)C)[C@@H](C)O)C(c1ccccc1)c1ccccc1)[C@@H](C)CC)C(=O)N[C@H](CCCCN)C(=O)N[C@@H](C)C(N)=O"}, "B7": {"name": "Isovaleric Acid-[Tet1]-T-[(1-Me)His]-[Dpa]-P-A-I-[bhPhe]-[(D)Lys]-A-NH2 (peptide)", "peptide": "Isovaleryl-[Ala(1H-tetrazol-5-yl)]T[His(τ-Me)][Dip]PAI[β3hF][dK]A-NH2", "SMILES": "CC[C@H](C)[C@H](NC(=O)[C@H](C)NC(=O)[C@@H]1CCCN1C(=O)[C@@H](NC(=O)[C@H](Cc1cn(C)cn1)NC(=O)[C@@H](NC(=O)[C@H](Cc1nnn[nH]1)NC(=O)CC(C)C)[C@@H](C)O)C(c1ccccc1)c1ccccc1)C(=O)N[C@H](CC(=O)N[C@H](CCCCN)C(=O)N[C@@H](C)C(N)=O)Cc1ccccc1"}, "B8": {"name": "Isovaleric Acid-[Tet2]-T-[(1-Me)His]-[Dpa]-P-A-I-[Lys(Ac)]-[bhPhe]-[(D)Lys]-NH2 (peptide)", "peptide": "Isovaleryl-[Tet2]T[His(τ-Me)][Dip]PAIK(Ac)[β3hF][dK]-NH2", "SMILES": "CC[C@H](C)[C@H](NC(=O)[C@H](C)NC(=O)[C@@H]1CCCN1C(=O)[C@@H](NC(=O)[C@H](Cc1cn(C)cn1)NC(=O)[C@@H](NC(=O)[C@H](CCc1nn[nH]n1)NC(=O)CC(C)C)[C@@H](C)O)C(c1ccccc1)c1ccccc1)C(=O)N[C@@H](CCCCNC(C)=O)C(=O)N[C@H](CC(=O)N[C@H](CCCCN)C(N)=O)Cc1ccccc1"}, "B9": {"name": "Isovaleric Acid-[Tet1]-T-[(1-Me)His]-[Dpa]-P-A-I-[bhPhe]-[(D)Lys]-NH2 (peptide)", "peptide": "Isovaleryl-[Ala(1H-tetrazol-5-yl)]T[His(τ-Me)][Dip]PAI[β3hF][dK]-NH2", "SMILES": "CC[C@H](C)[C@H](NC(=O)[C@H](C)NC(=O)[C@@H]1CCCN1C(=O)[C@@H](NC(=O)[C@H](Cc1cn(C)cn1)NC(=O)[C@@H](NC(=O)[C@H](Cc1nnn[nH]1)NC(=O)CC(C)C)[C@@H](C)O)C(c1ccccc1)c1ccccc1)C(=O)N[C@H](CC(=O)N[C@H](CCCCN)C(N)=O)Cc1ccccc1"}, "B10": {"name": "Isovaleric Acid-[Tet2]-T-H-[Dpa]-P-A-I-[Lys(Ac)]-[bhPhe]-[(D)Lys]-A-NH2 (peptide)", "peptide": "Isovaleryl-[Tet2]TH[Dip]PAIK(Ac)[β3hF][dK]A-NH2", "SMILES": "CC[C@H](C)[C@H](NC(=O)[C@H](C)NC(=O)[C@@H]1CCCN1C(=O)[C@@H](NC(=O)[C@H](Cc1c[nH]cn1)NC(=O)[C@@H](NC(=O)[C@H](CCc1nn[nH]n1)NC(=O)CC(C)C)[C@@H](C)O)C(c1ccccc1)c1ccccc1)C(=O)N[C@@H](CCCCNC(C)=O)C(=O)N[C@H](CC(=O)N[C@H](CCCCN)C(=O)N[C@@H](C)C(N)=O)Cc1ccccc1"}, "B11": {"name": "Isovaleric Acid-L-T-[(1Me)His]-[Dpa]-P-A-I-[Lys(Ahx_Palm)]-[bhPhe]-NH2 (peptide)", "peptide": "Isovaleryl-LT[His(τ-Me)][Dip]PAIK([Ahx-Palmitoyl])[β3hF]-NH2", "SMILES": "CCCCCCCCCCCCCCCC(=O)NCCCCCC(=O)NCCCC[C@H](NC(=O)[C@@H](NC(=O)[C@H](C)NC(=O)[C@@H]1CCCN1C(=O)[C@@H](NC(=O)[C@H](Cc1cn(C)cn1)NC(=O)[C@@H](NC(=O)[C@H](CC(C)C)NC(=O)CC(C)C)[C@@H](C)O)C(c1ccccc1)c1ccccc1)[C@@H](C)CC)C(=O)N[C@H](CC(N)=O)Cc1ccccc1"}, "B12": {"name": "Isovaleric Acid-[Tet1]-T-[(1-Me)His]-[Dpa]-P-A-I-[Lys(Ac)]-[bhPhe]-[(D)Lys]-A-NH2 (peptide)", "peptide": "Isovaleryl-[Ala(1H-tetrazol-5-yl)]T[His(τ-Me)][Dip]PAIK(Ac)[β3hF][dK]A-NH2", "SMILES": "CC[C@H](C)[C@H](NC(=O)[C@H](C)NC(=O)[C@@H]1CCCN1C(=O)[C@@H](NC(=O)[C@H](Cc1cn(C)cn1)NC(=O)[C@@H](NC(=O)[C@H](Cc1nnn[nH]1)NC(=O)CC(C)C)[C@@H](C)O)C(c1ccccc1)c1ccccc1)C(=O)N[C@@H](CCCCNC(C)=O)C(=O)N[C@H](CC(=O)N[C@H](CCCCN)C(=O)N[C@@H](C)C(N)=O)Cc1ccccc1"}, "B13": {"name": "Isovaleric Acid-[Tet1]-T-H-[Dpa]-P-A-I-[Lys(Ac)]-[bhPhe]-[(D)Lys]-A-NH2 (peptide)", "peptide": "Isovaleryl-[Ala(1H-tetrazol-5-yl)]TH[Dip]PAIK(Ac)[β3hF][dK]A-NH2", "SMILES": "CC[C@H](C)[C@H](NC(=O)[C@H](C)NC(=O)[C@@H]1CCCN1C(=O)[C@@H](NC(=O)[C@H](Cc1c[nH]cn1)NC(=O)[C@@H](NC(=O)[C@H](Cc1nnn[nH]1)NC(=O)CC(C)C)[C@@H](C)O)C(c1ccccc1)c1ccccc1)C(=O)N[C@@H](CCCCNC(C)=O)C(=O)N[C@H](CC(=O)N[C@H](CCCCN)C(=O)N[C@@H](C)C(N)=O)Cc1ccccc1"}}, "note": "Starred links: 1 amine or outer side, 2 acyl side, 3 side chain; linkers in the order of their positions; H or OH if unused. Positions of bridges follow the written chain, without caps; N, C: chain ends. Non-standard residues stand in square brackets, D forms with d. Groups on a side chain read outwards from the residue. *: point of attachment. Tet2 = (S)-2-amino-4-(1H-tetrazol-5-yl)butanoic acid, O=C([C@H](CCc1nn[nH]n1)N[*:1])[*:2]; Ala(1H-tetrazol-5-yl) = N[C@@H](Cc1nnn[nH]1)C(=O)O; Dip = N[C@H](C(=O)O)C(c1ccccc1)c1ccccc1; His(τ-Me) = Cn1cnc(C[C@H](N)C(=O)O)c1; Palmitoyl = CCCCCCCCCCCCCCCC(=O)*; β3hF = N[C@H](CC(=O)O)Cc1ccccc1; His(1-Me) = 1-methylhistidine; NMeK = CN[C@@H](CCCCN)C(=O)O; Isovaleryl = CC(C)CC(=O)*; Ahx = NCCCCCC(=O)O"}
{"target": "T1, human ferroportin (SLC40A1) fused in frame with GFP, stably expressed in HEK293 cells (human, UniProt Q9NP59 1-571)", "T1 sequence (looked up)": "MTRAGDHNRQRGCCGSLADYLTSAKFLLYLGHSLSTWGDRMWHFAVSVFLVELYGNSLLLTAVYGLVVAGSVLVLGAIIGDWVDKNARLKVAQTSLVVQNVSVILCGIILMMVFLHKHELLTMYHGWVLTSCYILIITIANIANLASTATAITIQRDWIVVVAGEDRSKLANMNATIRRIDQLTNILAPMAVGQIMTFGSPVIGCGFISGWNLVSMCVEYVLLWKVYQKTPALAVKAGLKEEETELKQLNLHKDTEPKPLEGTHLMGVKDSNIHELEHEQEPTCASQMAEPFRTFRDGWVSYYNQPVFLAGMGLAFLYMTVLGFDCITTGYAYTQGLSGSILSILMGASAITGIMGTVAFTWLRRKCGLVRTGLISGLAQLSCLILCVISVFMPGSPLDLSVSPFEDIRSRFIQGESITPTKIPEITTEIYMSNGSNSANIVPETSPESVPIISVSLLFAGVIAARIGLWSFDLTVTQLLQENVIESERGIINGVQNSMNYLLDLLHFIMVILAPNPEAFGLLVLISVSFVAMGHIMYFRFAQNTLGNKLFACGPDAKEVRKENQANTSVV", "experiment": "cell-based or functional assay", "units": {"FPN EC50": "nM"}}
{"binder": "B1", "FPN EC50": 492}
{"binder": "Isovaleryl-LT[His(τ-Me)][Dip]PAI[NMeK][β3hF]K([Ahx-Palmitoyl])-NH2", "note": "[Isovaleric Acid-L-T-[(1Me)His]-[Dpa]-P-A-I-[(N-Me)Lys)]-[bhPhe]-[Lys(Ahx_Palm)]-NH2]", "FPN EC50": 95.9}
{"binder": "B2", "FPN EC50": 63.1}
{"binder": "B3", "FPN EC50": 184}
{"binder": "B4", "FPN EC50": 915}
{"binder": "Isovaleryl-ETH[Dip]PKIK([Ahx-Palmitoyl])[β3hF][dK]-NH2 (lactam 1-6 (inferred))", "note": "[Isovaleric Acid-E-T-H-[Dpa]-P-K-I-[Lys(Ahx_Palm)]-[bhPhe]-[(D)Lys]-NH2; (E and K cyclized)]", "FPN EC50": 122}
{"binder": "B5", "FPN EC50": 103}
{"binder": "Isovaleryl-ET[His(1-Me)][Dip]PAIK(Ac)[β3hF][dK]A-NH2", "note": "[Isovaleric Acid-E-T-[(1-Me)His]-[Dpa]-P-A-I-[Lys(Ac)]-[bhPhe]-[(D)Lys]-A-NH2]", "FPN EC50": "> 3000"}
{"binder": "B6", "FPN EC50": 356}
{"binder": "B7", "FPN EC50": 241}
{"binder": "B8", "FPN EC50": "> 3000"}
{"binder": "B9", "FPN EC50": 378}
{"binder": "Isovaleryl-[Tet2]T[His(τ-Me)][Dip]PAIK(Ac)[β3hF][dK]A-NH2", "note": "[Isovaleric Acid-[Tet2]-T-[(1-Me)His]-[Dpa]-P-A-I-[Lys(Ac)]-[bhPhe]-[(D)Lys]-A-NH2]", "FPN EC50": "> 3000"}
{"binder": "B10", "FPN EC50": 117}
{"binder": "B11", "FPN EC50": "> 3000"}
{"binder": "B12", "FPN EC50": "> 3000"}
{"binder": "B13", "FPN EC50": 18.9}
